Patent US20240092941A1 (FRED HUTCHINSON CANCER CENTER, published 2024)

Target: T1, soluble ROR1 ectodomain (UniProt Q01973 30-406, limits assumed)
T1 construct: extracellular domain
Test: method not stated in the legend of FIG. 1

T1 sequence (Q01973 30-406 limits assumed): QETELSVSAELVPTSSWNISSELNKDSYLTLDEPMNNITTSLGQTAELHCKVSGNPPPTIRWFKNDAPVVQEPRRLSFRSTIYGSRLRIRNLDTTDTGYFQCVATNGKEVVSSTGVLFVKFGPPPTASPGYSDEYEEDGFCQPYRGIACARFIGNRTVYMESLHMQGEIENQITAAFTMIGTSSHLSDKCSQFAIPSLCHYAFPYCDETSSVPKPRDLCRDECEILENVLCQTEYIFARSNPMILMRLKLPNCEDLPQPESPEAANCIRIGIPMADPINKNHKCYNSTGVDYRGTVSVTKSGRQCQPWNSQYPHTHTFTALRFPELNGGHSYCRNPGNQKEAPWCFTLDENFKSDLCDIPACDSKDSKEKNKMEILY

Row | Kd [nM] | Binder
1 | 2 | Nb14 WT (VHH) VHH: QVKLVQSGGGLVQTGGSLRLSCAASEITFDMYSMGWYREAPGKARDAVASITNRGNTYYADSVKGRFTISRDNAKKTMYLQMNSLKPEDTAVYYCNVYRTGFSDYWGQGTQVTVSS
2 | 2 | Nb11 WT (VHH) VHH: QVKLVQSGGGLVQAGGSLRLSCAASGSIFSSASMGWYRQAPGKPREQVASITRDGNTYYEDDVKGRFTISRDNARSTGYLQMNSLTPEDTGVYYCNVYQLGFYDKWGQGTQVIVSS
